Biological target: pICln (UniProt P54105 1-237)
Assay: pull-down

binding result: binds
B1: GST-PRMT5reg (domain or fragment)
chain: MAAMAVGGAGGSRVSSGRDLNCVPEIADTLGAVAKQGFDFLCMPVFHPRFKREFIQEPAKNRPGPQTRSDLLLSGRDWNTLIVGKLSPWIRPDSKVEKIRRNSEAAMLQELNFGAYLGLPAFLLPLNQEDNTNLARVLTNHIHTGHHSSMFWMRVPLVAPEDLRDDIIENAPTTHTEEYSGEEKTWMWWHNFRTLCDYSKRIAVALEIGADLPSNHVIDRWLGEPIKAAILPTSIFLTNKKGFPVLSKMHQRLIFRLLKLEVQFIITGTNHHSEKEFCSYLQYLEYLSQN

Source: PMC2755859 (The Journal of Biological Chemistry, 2009)
